Reference: patent US20220332818A1 (AstraZeneca / MedImmune, published 2022)

Molecular target: T1, TIM-3 IgV domain (human) (human, UniProt Q8TDQ0 22-130)
T1 construct: also called IgV domain of TIM-3; human TIM-3 IgV
T1 sequence: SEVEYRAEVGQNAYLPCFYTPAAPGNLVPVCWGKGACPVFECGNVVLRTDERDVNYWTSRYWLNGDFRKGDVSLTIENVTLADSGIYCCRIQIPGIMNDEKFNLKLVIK
Assay: co-crystal X-ray structure
Method: To obtain the co-crystal structure of the TIM-3 IgV domain with antigen-binding fragments (Fabs), all proteins were expressed in mammalian cells and purified to homogeneity. Purified TIM-3 IgV domain and Fabs (one at a time) were incubated at a slight excess of IgV domain, followed by size exclusion purification of the complex. Crystallization of the complexes was performed at room temperature. The X-ray diffraction data was collected at the Stanford Synchrotron Radiation Lightsource (SSRL, Menlo Park, Calif., USA). Structures of the complexes were solved by molecular replacement.

B1: Fab of anti-TIM3 antibody #62 (Fab, V domains shown)
VH: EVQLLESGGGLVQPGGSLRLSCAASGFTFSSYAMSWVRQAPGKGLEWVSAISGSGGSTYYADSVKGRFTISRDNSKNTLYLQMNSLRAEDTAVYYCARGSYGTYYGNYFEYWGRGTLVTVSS
VL: QTVLTQPPSVSVAPGKTASISCGGDNIGGKSVHWYQQKPGQAPVLVIYYDSDRPSGIPQRFSGSNSGNTATLTIHRVEAGDEADYYCQVLDRRSDHWLFGGGTKLTVL
notes: Fab expressed in mammalian cells for co-crystallisation; also called clone 62
B1: binds.
